From patent US20220213176A1 come the findings set out here.

The target of the assay is SARS-CoV-2 K417N+E484K+N501Y+D614G mutant pseudovirus spike (spikeΔ19) (SARS-CoV-2) (UniProt P0DTC2). Kind of assay: cell-based or functional assay.

The substance S309 dimer (antibody) displayed an NT50 (B.1.351) (nM), pseudovirus neutralization of 0.36 nM.
